Data reported in US12072338B2, “Pharmaceutical peptides for the treatment of inflammatory diseases” (PROTAGONISTS LTD., priority 2007, dated 2024).
Read-outs that look alike come from different tables or passages of the source.

How the values were obtained:
Eotaxin = target: T1, Eotaxin (Homo sapiens, UniProt P51671); assay: Micro-array analysis of chemokine binding peptides: Eotaxin
T1 construct: purchased 300-21
Summary of the method: (§1)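 Relative Cy3 fluorescence reflects how much recombinant phage (10^7 pfu/μl, 1 h, RT) bound chemokine printed at 25 or 50 μg/ml. Detection used anti-M13 monoclonal followed by Cy3 anti-mouse IgG.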

Lymphotactin = target: T2, Lymphotactin (Homo sapiens, UniProt P47992); assay: Micro-array analysis of chemokine binding peptides: Lymphotactin
T2 construct: purchased 300-20
T2 sequence (P47992 22-114): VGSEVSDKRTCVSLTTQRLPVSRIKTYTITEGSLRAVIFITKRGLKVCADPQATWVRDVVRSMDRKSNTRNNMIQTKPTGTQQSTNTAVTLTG
Summary of the method: as §1

MDC 69 = target: T3, MDC 69 (Homo sapiens, UniProt O00626); assay: Micro-array analysis of chemokine binding peptides: MDC 69
T3 construct: MDC(69aa), (CCL22 cat.no.300-36A); purchased 300-36A
T3 sequence (O00626 25-93): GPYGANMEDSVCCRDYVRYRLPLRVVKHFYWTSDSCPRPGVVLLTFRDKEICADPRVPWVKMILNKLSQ
Method: (§2) (1) Printing: Chemokine (CK) solution (in water) was serially diluted with Print Reagent (GenTel BioSurfaces USA) to final concentrations of 50 μg and 25 μg/ml. BSA/BSA-Biotin control solutions (in water) were diluted with Print Reagent to 100 μg/ml. Amplified stock of M13 phage control (M13KEgIII Cloning Vector, New England Biolabs, Cat.No.E8101S) was stored in Tris Buffered Saline (TBS; pH7.5, 4° C.) and diluted with Print Reagent to the working titre (10^8 pfu/μl). An automated spotting robot (16 pin print tool, 0.4 mm head; BioRobotics, UK) was used to print the CK/BSA control/M13 control, 5 repeats per sample (CK 25 μg/ml and 50 μg/ml; BSA 100 μg/ml; M13 20 μl), on PATH Protein Microarray Slides (GenTel, Prod.No. 2-1005/-1025) at […], and 50-70% relative humidity. Printed micro-array slides were stored at Room Temperature (RT) or 4° C. for at least 24 h before use.
(§3) (2) Blocking: Block Buffer (500 μl/partition; PATHblock, GenTel, Prod.No. 2-1014) was applied to the slide for 1 hour at room temp (RT). After removal of Block Buffer, the slide was air dried for 25 minutes;
(§4) (3) Phage Presented Peptide Binding: Amplified recombinant phage stock was stored in TBS and diluted with Wash Buffer to working titer (10^7 pfu/μl). Recombinant phage suspension (300 μl) was applied per partition and incubated at RT for 1 hour with gentle agitation.
(§5) (4) First Washing: The slides were washed twice with Wash Buffer 300 μl/partition).
(5) Primary Antibody (Ab) Labeling: The slides were incubated with the Primary Ab (1 mg/ml diluted ×2500 (Wash Reagent), 300 μl; Mouse Anti-M13 monoclonal Ab; Amersham Biosciences, UK; Product Code 27-9420-01) for 45 minutes at RT. […]
(§6) (11) Analysis: Quantitative analysis of micro-array was performed by the SpotReader program of Niles Scientific (USA) and presented as Relative Fluorescence (RF) as a function of CK concentration. Micro-array readout (Cy3 fluorescence) was quantified to determine the relative binding affinities of a CBP for the CKs and by inference, the specificity of the CBP for binding to a CK.

Exodus-2 = target: T4, Exodus-2 (Homo sapiens, UniProt O00585); assay: Micro-array analysis of chemokine binding peptides: Exodus-2
T4 construct: purchased 300-35
T4 sequence (O00585 24-134): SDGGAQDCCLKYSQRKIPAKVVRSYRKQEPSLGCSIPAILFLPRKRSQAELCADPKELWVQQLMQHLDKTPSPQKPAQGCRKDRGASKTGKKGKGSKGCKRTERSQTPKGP
Summary of the method: as §1

Mig = target: T5, Mig (Homo sapiens, UniProt Q07325); assay: Micro-array analysis of chemokine binding peptides: Mig
T5 construct: purchased 300-26
T5 sequence (Q07325 23-125): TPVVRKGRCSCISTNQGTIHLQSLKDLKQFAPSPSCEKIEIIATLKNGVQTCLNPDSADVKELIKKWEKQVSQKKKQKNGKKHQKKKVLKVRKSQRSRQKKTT
Summary of the method: as §1

MCP-1 = target: T6, MCP-1 (Homo sapiens, UniProt P13500); assay: Micro-array analysis of chemokine binding peptides: MCP-1; details: for binding to MCP-1 with relatively high affinity (Relative Fluorescence Units): limit = start of the upper 75% of that peptide's response range
T6 construct: purchased 300-04
Summary of the method: as §1

SDF1 = assay: Micro-array analysis of chemokine binding peptides: SDF1 (isoform not given)
Method: as §2, §3, §4, §5
(5) Primary Antibody (Ab) Labeling: The slides were incubated with the Primary Ab (1 mg/ml diluted ×2500 (Wash Reagent), 300 μl; Mouse Anti-M13 monoclonal Ab; Amersham Biosciences, UK; Product Code 27-9420-01) for 45 minutes at RT.
(6) Second Washing: The slides were washed twice with Wash Buffer (300 μl/partition).
(7) Secondary Ab Labeling: The slides were incubated with Secondary Ab (1.5 mg/ml diluted ×5000 (Wash Reagent), 300 μl; Cy3-conjugated AffiniPure Goat Anti-Mouse IgG; Jackson ImmunoReserch Labs, USA; Product Code 115-165-062).
(8) Third Washing: The slides were washed twice with Wash Buffer (300 μl/partition).
(9) Rinse: the slides were rinsed twice with Rinse Buffer (PATHrinse, GenTel, Prod.No. 2-1018) then dried well.
(10) Scanning: The peptide-bound, labeled slide was scanned (Laser Intensity 80%, Gain 80%, Resolution 10 μm) with a ScanArray Life Scanner (Packard BioChip Technologies, USA).
as §6

IP-10 = target: T7, IP-10 (Homo sapiens, UniProt P02778); assay: Micro-array analysis of chemokine binding peptides: IP-10
T7 construct: purchased 300-12
T7 sequence (P02778 22-98): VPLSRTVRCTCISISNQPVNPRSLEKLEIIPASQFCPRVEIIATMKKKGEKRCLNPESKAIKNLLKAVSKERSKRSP
Summary of the method: as §1

MIP3-α = target: T8, MIP3-α (Homo sapiens, UniProt P78556); assay: Micro-array analysis of chemokine binding peptides: MIP3-α
T8 construct: purchased 300-29A
Method: as §2, with “use. […]” for “use.”
as §6

[1] = limit = start of the upper 75% of that peptide's response range

T6 sequence (P13500 24-99): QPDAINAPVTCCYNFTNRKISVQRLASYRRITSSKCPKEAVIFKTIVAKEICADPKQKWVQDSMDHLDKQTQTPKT
SDF1, sequence (P48061 22-89 limits assumed): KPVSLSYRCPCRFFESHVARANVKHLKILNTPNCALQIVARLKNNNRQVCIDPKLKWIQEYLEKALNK
T1 sequence (P51671 24-97): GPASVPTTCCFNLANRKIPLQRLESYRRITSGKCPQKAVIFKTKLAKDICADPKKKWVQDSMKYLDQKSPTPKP
T8 sequence (P78556 27-96): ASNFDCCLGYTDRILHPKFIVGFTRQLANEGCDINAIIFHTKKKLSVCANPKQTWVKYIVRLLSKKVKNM

DYDYGAPC [Ph-p30]
> 15,000 RFU: binding to Eotaxin with relatively high affinity (Relative Fluorescence Units) (Eotaxin; [1]) | binding to Mig with relatively high affinity (Relative Fluorescence Units) (Mig; [1]) | binding to MCP-1 with relatively high affinity (Relative Fluorescence Units) (MCP-1)
bound: binding to Lymphotactin, stated in words (Lymphotactin) | binding to MDC 69, stated in words (MDC 69) | binding to Exodus-2, stated in words (Exodus-2)

WVFGAAMCK [Ph-p8.8]
bound specifically and differentially: binding to SDF1 (isoform not given), stated in words (SDF1) | binding to IP-10, stated in words (IP-10; listed as P8.8) | binding to MCP-1, stated in words (MCP-1)
> 15,000 RFU: binding to MCP-1 with relatively high affinity (Relative Fluorescence Units) (MCP-1)
bound: binding to Eotaxin, stated in words (Eotaxin) | binding to Lymphotactin, stated in words (Lymphotactin) | binding to MDC 69, stated in words (MDC 69) | binding to Exodus-2, stated in words (Exodus-2) | binding to IP-10, stated in words (IP-10) | binding to Mig, stated in words (Mig) | binding to MIP3-α, stated in words (MIP3-α)

WVFGNAMCK [P8]
bound specifically and differentially: binding to SDF1 (isoform not given), stated in words (SDF1)
